Assay results: patent US20110300156A1 (Genmab, published 2011)

Columns and labels:
[1] = biological target: T1, human tissue factor (TF), membrane-bound on cells (human, UniProt P13726 33-295); test: cell-based or functional assay
[2] = biological target: T1, human tissue factor (TF), …; test: FACS, MDA-MB-231 cells, 30 µg/mL
Protocol: (§1) Cells were resuspended in PBS (2×10⁶ cells/ml), put in 96-well V-bottom plates (50 μl/well). 50 μl of serially diluted HuMab in FACS buffer (PBS supplemented with 0.1% BSA and 0.02% Na-azide) was added to the cells and incubated for 30 minutes on ice. After washing three times with FACS buffer, 50 μl of phycoerythrin (PE)-conjugated goat anti-human IgGFc (Jackson ImmunoResearch), diluted 1:100 in FACS buffer, was added. After 30 minutes on ice (in the dark), cells were washed three times, and specific binding of the HuMabs was detected by flow cytometry on a FACSCalibur (BD Biosciences). HuMab-KLH was used as a negative control. Mouse anti-TF followed by PE-conjugated anti-mouse IgGFc was used as positive control. Binding curves were analyzed using non-linear regression (sigmoidal dose-response with variable slope) using GraphPad Prism V4.03 software (GraphPad Software, San Diego, Calif., USA).

[3] = biological target: T1, human tissue factor (TF), …; test: FACS, A431 cells
Protocol: as §1

[4] = biological target: T1, human tissue factor (TF), …; test: cell-based or functional assay; remark: listed apart in the source
[5] = biological target: T1, human tissue factor (TF), …; test: FACS, MDA-MB-231 cells
Protocol: as §1

[6] = biological target: T1, human tissue factor (TF), …; test: FACS, TF transfected CHO cells (S1015-TF)
Protocol: as §1

[7] = biological target: T2, murine tissue factor (TF) on transfected HEK293F cells (murine, UniProt P20352 29-294); test: FACS on transfected HEK293F cells, 30 µg/mL antibody [panel E]
T2 construct: whole, on cells; also called murine TF; TFmm
T2 sequence (looked up): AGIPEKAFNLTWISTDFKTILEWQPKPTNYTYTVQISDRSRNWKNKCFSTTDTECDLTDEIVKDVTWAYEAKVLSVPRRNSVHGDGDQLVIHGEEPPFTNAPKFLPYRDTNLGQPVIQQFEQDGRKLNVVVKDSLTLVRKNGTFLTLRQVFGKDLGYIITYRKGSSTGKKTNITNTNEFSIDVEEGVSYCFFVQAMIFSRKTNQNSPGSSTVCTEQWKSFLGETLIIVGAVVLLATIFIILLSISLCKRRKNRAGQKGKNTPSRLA

[8] = biological target: T1, human tissue factor (TF), …; test: FACS, TF transfected CHO cells (S1015-TF), 7.5 µg/mL
Protocol: as §1

TF (Innovin) [9] = biological target: T3, TF (Innovin) (UniProt P13726 33-295, limits assumed); test: cell-based or functional assay
[10] = biological target: T4, TFECDHis (extracellular domain of tissue factor, amino acid 1-251, with C-terminal His tag) (human, UniProt P13726 33-251); test: competition ELISA, inhibition of FVIIa (100 nM) binding to coated TFECDHis
T4 construct: range 1-251; The stated range 1-251 starts at residue 1 of NP-001984; also called extracellular domain of TF
Protocol: ELISA plates were coated overnight with TFECDHis (0.5 μg/mL, 100 μL per well). Plates were emptied, blocked with PBS containing 2% (v/v) chicken serum (1 hour, RT), and emptied again. […] Plates were washed and incubated with swine-anti-rabbit IgG-HRP antibody (1:2,500; DAKO). After washing, the immune complexes were visualized using ABTS as a substrate.

[11] = biological target: T4, TFECDHis (extracellular domain of …); test: ELISA, coated TFECDHis, mean of 3
Protocol: The specificity of the obtained anti-TF HuMabs was evaluated by ELISA. ELISA plates (Microlon; Greiner Bio-One) were coated overnight at +4° C. with 0.5 μg/mL of TFECDHis in PBS, pH 7.4. Coated ELISA plates were emptied and blocked for one hour at room temperature with 2% (v/v) chicken serum (Gibco, Paisley, Scotland) in PBS and washed with PBS containing 0.05% Tween 20 (PBST). Subsequently, HuMabs, serially diluted in PBSTC (PBS supplemented with 2% (v/v) chicken serum and 0.05% (v/v) Tween-20), were incubated for 1 hr at RT under shaking conditions (300 rpm). Bound HuMabs were detected using HRP-conjugated goat-anti-human IgG antibodies (Jackson ImmunoResearch) diluted 1:5,000 in PBSTC, which were incubated for 1 hr at RT under shaking conditions (300 rpm). […] HuMab-KLH (a human monoclonal antibody against KLH (keyhole limpet haemocyanin)), was used as a negative control. Mouse anti-human TF (ERL) was used as positive control (HRP labeled anti-mouse IgG as conjugate). Binding curves were analyzed using non-linear regression (sigmoidal dose-response with variable slope) using GraphPad Prism V4.03 software.

TF (Innovin) [12] = biological target: T3, TF (Innovin); test: cell-based or functional assay; remark: listed apart in the source
[13] = biological target: T1, human tissue factor (TF), …; test: FACS, Bx-PC3 cells
Protocol: as §1

[14] = biological target: T1, human tissue factor (TF), …; test: cell-based or functional assay; remark: listed apart in the source
[15] = biological target: T1, human tissue factor (TF), …; test: FACS, Bx-PC3 cells, 30 µg/mL
Protocol: as §1

[16] = biological target: T4, TFECDHis (extracellular domain of …); test: SPR BIAcore 3000, HuMab immobilized, TFECDHis analyte
Protocol: Antibody binding to TF was analyzed by surface plasmon resonance in a BIAcore 3000 (GE Healthcare). TFECDHis was used for the analysis. HuMab antibodies (500 resonance units) were immobilized on the CM-5 sensor chip according to the procedure recommended by the manufacturer. Briefly, after surface activation by EDC and NHS HuMab antibody was injected over the activated CM-5 surface in 10 mM sodium-acetate, pH ranging from 4.0 to 5.5 at 5 μl/min. followed by 1 M Ethanolamine for deactivation. Concentration series of TFECDHis in HBS-EP buffer were injected over the immobilized antibodies at a flow rate of 30 μl/min for 180 sec. Regeneration of the HuMab surface was performed by injection of 10 mM Glycine-HCl pH 2.0 or 10 mM sodium acetate pH 3.0. Kinetic analysis was performed using double reference subtraction and model 1:1 (langmuir) binding analysis.

[17] = biological target: T1, human tissue factor (TF), …; test: FACS, A431 cells, 30 µg/mL
Protocol: as §1

[18] = biological target: T1, human tissue factor (TF), …; test: FACS on AsPC-1 cells (~175.000 TF molecules/cell) [panel AsPC-1 cells]
Protocol: as §1
(§2) Binding of anti-TF HuMabs to membrane-bound TF on cell lines expressing different levels of TF was determined by FACS analysis, essentially as described supra. Mouse anti-TF antibody followed by PE-conjugated anti-mouse IgGFc was used as a positive control. Fluorescence was measured on a FACSCantoII. Binding curves were analyzed essentially as described supra, using GraphPad Prism 5 software. The amount of TF molecules on cell lines was determined by Qifi kit (Dako, Glostrup, Denmark), according to the manufacturer's instructions.

[19] = biological target: T1, human tissue factor (TF), …; test: FACS on SK-OV-3 cells (~60.000 TF molecules/cell) [panel SK-OV-3 cells]
Protocol: as §1
Binding of anti-TF HuMabs to membrane-bound TF on cell lines expressing different levels of TF was determined by FACS analysis, essentially as described supra. […] Fluorescence was measured on a FACSCantoII. Binding curves were analyzed essentially as described supra, using GraphPad Prism 5 software. The amount of TF molecules on cell lines was determined by Qifi kit (Dako, Glostrup, Denmark), according to the manufacturer's instructions.

[20] = biological target: T4, TFECDHis (extracellular domain of …); test: ELISA on coated extracellular domain of TF, detection with HRP-conjugated donkey anti-human H+L
[21] = biological target: T2, murine tissue factor (TF) on …; test: FACS on transfected HEK293F cells, 30 µg/mL antibody [panel B]
[22] = biological target: T1, human tissue factor (TF), …; test: FACS on MDA-MB-231 cells (~900.000 TF molecules/cell) [panel MDA-MB-231 cells]
Protocol: as §1, §2

[23] = biological target: T2, murine tissue factor (TF) on …; test: FACS on transfected HEK293F cells, 30 µg/mL antibody [panel G]

B1: anti-TF HuMab 025 (antibody, V domains shown)
VH: QVQLVESGGGVVQPGRSLRLSCAASGFTFSRYAMHWVRQAPGKGLEWVAVISNDGYNDYYADSVKGRFTVSRDNSKNTLYLQMNSLRAEDTAVYYCARDGQLGRGYFDYWGQGTLVTVSS
VL: EIVLTQSPATLSLSPGERATLSCRASQSVSSYLAWYQQKPGQAPRLLIYDASNRATGIPARFSGSGSGTDFTLTISSLEPEDFAVYYCQQRSNWPLTFGGGTKVEIK
notes: Human monoclonal antibody from HuMab mice
B1 was tested, and the “EC50 of ADCC, A431 cells” value [1] was 0.16 nM, the “EC50 of ADCC, Bx-PC3 cells” value [1] was 0.15 nM and the “EC50 of ADCC, MDA-MB-231 cells” value [1] was 0.24 nM. For the same binder, the “Max MFI” value [2] was 2250, the EC50 [3] was 5.19 nM and the “% max inhibition of FVIIa induced ERK phosphorylation (A431)” value [4] was 66%. The “IC50, inhibition of FVIIa induced ERK phosphorylation (A431)” value [4] was 2.16 nM, the EC50 [5] was 0.69 nM and the EC50 [6] was 0.73 nM. The binding result [7] was “no binding (tested: 30 µg/mL)”, the “Max MFI” value [8] was 5810 and the “IC50, inhibition of blood coagulation (TF induced clotting time)” value (TF (Innovin) [9]) was 2.3 nM. The max inhibition [10] was 90%, the EC50 [11] was 0.34 nM and the “% max inhibition of FXa generation” value (TF (Innovin) [12]) was 19%. For the same binder, the “IC50, inhibition of FXa generation” value (TF (Innovin) [12]) was 0.3 nM, the EC50 [13] was 0.88 nM and the “IC50, inhibition of FVIIa induced IL-8 release (MDA-MB-231)” value [14] was 23.1 nM. For the same binder, the “max inhibition of FVIIa induced IL-8 release (MDA-MB-231)” value [14] was 75.6%, the “Max MFI” value [15] was 1320 and the Kd [16] was 1.97 nM. For the same binder, the “Max MFI” value [17] was 3170.

B2: anti-TF HuMab 011 (antibody, V domains shown)
VH: EVQLLESGGGLVQPGGSLRLSCAASGFTFSNYAMSWVRQAPGKGLEWVSSISGSGDYTYYTDSVKGRFTISRDNSKNTLYLQMNSLRAEDTAVYYCARSPWGYYLDSWGQGTLVTVSS
VL: DIQMTQSPPSLSASAGDRVTITCRASQGISSRLAWYQQKPEKAPKSLIYAASSLQSGVPSRFSGSGSGTDFTLTISSLQPEDFATYYCQQYNSYPYTFGQGTKLEIK
notes: Human monoclonal antibody from HuMab mice; also called HuMab-TF-11
With B2 the “Max MFI” value [2] was 2140, the EC50 [3] was 0.2 nM and the EC50 [6] was 1.32 nM. For the same binder, the “Max MFI” value [8] was 5650, the “IC50, inhibition of blood coagulation (TF induced clotting time)” value (TF (Innovin) [9]) was 1.6 nM and the “EC50 (read off the curve)” value [18] was roughly 0.07 µg/mL. For the same binder, the EC50 [11] was 0.16 nM, the “EC50 (read off the curve)” value [19] was roughly 0.02 µg/mL and the “EC50 (read off the curve)” value [20] was roughly 0.1 µg/mL. For the same binder, the binding result [21] was “no binding (tested: 30 µg/mL)”, the EC50 [13] was 1.01 nM and the “Max MFI” value [15] was 1280. The “EC50 (read off the curve)” value [22] was roughly 0.03 µg/mL, the Kd [16] was 3.15 nM and the “Max MFI” value [17] was 2610.

B3: anti-TF HuMab 042 (antibody, V domains shown)
VH: EVQLLESGGGLVQPGGSLRLSCAASGFTFSSYGMSWVRQAPGKGLEWVSVISGSGGTTYYADSVKGRFTISRDNSKNTLYLQMNSLRAEDTAVYYCAKAPWTYYFDYWGQGTLVTVSS
VL: not shown
notes: as for B1
B3: no binding (tested: 30 µg/mL) [23].
